Assay results: patent US20040038887A1 (Harvard, published 2004)
No end group written: not given here.

T1: Recombinant water-soluble HLA-DR-2 molecules (DRB1*1501) (human)
T1 chain 1: not shown
T1 chain 2: not shown

B1: Biotinylated MBP 86-100 (SEQ ID NO: 1) (peptide)
peptide: SGSGNPVVHFFKNIVTPRT
modifications: not fully specified
B2: MBP 85-99 (SEQ ID NO: 2), unlabeled (peptide)
peptide: ENPVVHFFKNIVTPR
notes: also called unlabeled MBP 85-99 peptide; synthetic unlabeled peptide control MBP 85-99

Experiments:
[1] = target: T1, Recombinant water-soluble HLA-DR-2 …; assay: ELISA, biotinylated MBP 86-100 (0.13 uM) on soluble HLA-DR-2, no competitor; background 0.1
[2] = target: T2, Recombinant water-soluble HLA-DR-2 molecules (DRB1*1501) (human, UniProt P01903 26-216; P01911 30-227, limits assumed); assay: competition ELISA, unlabeled inhibitor against biotinylated MBP 86-100 on soluble HLA-DR-2 (LB3.1 capture, streptavidin-AP)
T2 construct: Expressed in Drosophila S2 cells and purified on a Protein A-LB3.1 column 'as described (Kalandadze et al. 1996)'; also called HLA DR-2 (DRB1*1501); purified HLA-DR-2

Binder | signal at 410 nm without competitor (absorbance at 410 nm) [1] | binding result [2]
B1 | 0.8 to 0.9 | –
B2 | – | binds
